From the DeepSol protein solubility set

Assay: soluble on expression in E. coli; label from the status in PepcDB or PDB records

Sequence	soluble on expression in E. coli
AHHHHHHGSGGMTIAEKILATHAGKEEVKPGEIVLAKVDFMFGNDVTTPLAIKTFRKIGVEKVFDPERIAIVLDHFTPNKDIKAAEQCKFSREFAREQGIKWFFEGGNVGVEHCLLPELGLVLPGELIIGADSHTCTYGALGAFATGVGSTDLAVAMATGEAWFRVPETIKFVYEGDLQPWVTSKDLILYTIGDIGVNGALYKVMEFSGEVIEKLSVEQRMTMTNMAIEAGAKTGIIEPDKKTIEYVKGRAKREYKIYKSDEDAKYYKVIEYDVSKIEPQVAFPHLPENTVPISKAAKMNIKIDQVVIGSCTNGRLEDLRMAAEVLEGQKVAPWVRLIILPCSPTVYFKAMKEGLLEIFLEAGAVIGPPTCGPCLGGHMGILASGERAVSTTNRNFVGRMGHPKSEVYLASPYVAAASAILGRIASPEEVVK	soluble
THCHLKNGEYHIDLIPQRLRGEIASFDIHVPETGELIVEQGRRITARHIKQMEKSQMQDLVVPRDYLIGKTLAKNIIDTSTGEFLAQANDEITEELLDAMANHG	not soluble
MSLNKKIEELNKLDKKVVLAPMAGITDGDFCRKFKDLFAIVTIGGYNLDSATYKASRDIEKRGRKEFSINLEEFNSYIIEQIKKARESNALVSVNVRFVDIDEAYDKLLTIAKHADIIELNCHCRQPEITSLGIGQELMKNKNLLKEFLTKMKELNKPIFLKIRLNCIPLKELIDNLNYVRDYFDGLHVDCFYPGKPYADMDSLKILAEEFNDKIIIGNNSIDSIEKAKEMLKYSDFVSVARTILKGNVEWIKELNKENIEGHHHHHH	soluble
MDALVANYASDSDSDGDAPAATAGEAAPVPPEPSALLPPPPLDLLQPPNFVDCSTMAQGSRVRSFPHVEGNYALHVYIPVVIPSDAKKHLVLVMRRAASFVPDLYAIDADYALSELCKDEQKLEKVLLSREFHVSLGRTVAIQVHQIESLVAMLRQKFRSQQRYWMDFNKWEHFVNDDCTRSFLSLEVTSTGLPEISKQITMVDDVYRLHGLPEFYKNPRPHISLAWALGDVSCKLKQAIKEIEKSQSSLGTSQISNLRCKFSHVVCKIGKKVYDICKLAD	not soluble
SLQLHFTNDALPDNVSTDFQNLNKFSEQQFVSLTDILYQFLLEPKESERFLHQLTEFAGENGMSAGPLRALMKSILLLPHGALKRNLTAEQIKLDLLSLGLNEDKASHFSDQWRVHYPVLARLAVGQTLMVNQLVDMEWKFGVTVGTSELQKTGNIFLQLKLVIRKGNMTENVYMELTLPQFYSFLHEMERAKASMDCFS	soluble
MDWSEERTATLKKLWLEGLSASQVARQLGGVSRSAVIGKVHRLGITVRETPVRQRATTARAPSRISVRQRPSRDVATPRVAPRYERIEEDLLPTSGILGLGAHSCRWPIGHPENDDFGFCGRPKASARGSYCEQHSQGAFRRLSGGQALEAWALKGVKEKRIQPRLVLEHHHHHH	not soluble
SLAFEPPRRLVRAFGETAPEGDDWLATLPEVAERAVARRGLTVERVQVPGGRSSLVVLVRTAEGAPAVLKLAPRRARPESERAALVHWGGRGAVQVREEGDEEGVLLLERLHPDVSVRSLPEAKALLEAAGTLRRLWVEPPGSHPFETVAERTGRQAEAMRAGAAADAQVAPLVDAALAARAELLGGPSEQRLLHGTFRQSKVLAGDRMPWLAVGPDPVVGESAFDLARLVRDRVEDLIAQPSGASTTRRRIKRLAESLEVDQERLRGWTLFRAVESGVRARRVGRERDAELLLEFAGWL	soluble
MTLAATLREADLFRSLPKGFVQCRACAHYCALPEGGAGKCGVRRNLGGRLYLVTYGKAAALHLDPVEKKPLYHFHPGEGILSVGTVGCNLFCAFCQNWQISQFREFRVSPEGRLDRPIGEDWPPKRLVAEAEALGVRLLAYTYNEPAVWIEYAHDTARLAKARGMKNVFVTSGFETKEAWDYIRPHLDAANVDLKGFTEKFYREVCGARLKPVLESLGHLVASGVWVEVTTLLLEGYNDSDEEVRAMARFLKGLSPDIPWHLTAAHPDYRMLDLRSTRHATLVRAHAIAKEEGLRFVYVGNVLDEERNSTYCPNCGRLLVRRRGYRVEALWEAPGVCPGCGQRIPGVWTW	soluble
MKCVVCGRNEAVEHGMCSSCIYDNTNVENIGPVSLVFCPKCGSIRIGKKWYRDSYGNKLLPMLLDEVKCSDVNARISGDEKGIFFDEKNKQIILPVTIKRSNMKDKIQNVAIPYSVTYISCPTCNKITGSYFEATIQLRTVSTKYDNILESVLESIEAIVEKRKKEDAESFISKVEKKPEGIDIYLGKRTDGDVVSSFVLDHFFSSIIVTKTLAGVKDGKKFFRFTYSLRILDAKEGSLEHHHHHH	not soluble
MFKKFTREDVHSRSKVKSSIQRTLKAKLVKQYPKIEDVIDELIPKKSQIELIKCEDKIQLYSVDGEVLFFQKFDELIPSLKLVHKFPEAYPTVQVDRGAIKFVLSGANIMCPGLTSAGADLPPAPGYEKGTIVVINAENKENALAIGELMMGTEEIKSVNKGHSIELIHHLGDPLWNFSVE	not soluble
MIIRDENYFTDKYELTRTHSEVLEAVKVVKPGKTLDLGCGNGRNSLYLAANGYDVDAWDKNAMSIANVERIKSIENLDNLHTRVVDLNNLTFDRQYDFILSTVVLMFLEAKTIPGLIANMQRCTKPGGYNLIVAAMDTADYPCTVGFPFAFKEGELRRYYEGWERVKYNEDVGELHRTDANGNRIKLRFATMLARKKLEHHHHHH	not soluble
AGSMEDIPVEEAVLTGVATDNSEAKITVLGIPDSPGSASAVFRALADAEINIDTVLQNISSLEDNRTDITFTCPRADGPHAMELLRNLQAKNDWQNVLYDDQIGKVSLVGAGMKSHPGVTAEFCEALRDAGVNIELISTSEIRISVLIRESDVDVAARAIHEKFELGGETEAIVYAGTGR	not soluble
MLIILTGLPSVGKSTFSKAFSKKMAEKNIDNIILGTDLIRESFPVWKESYEEFIRDSNNYLIKEALENKFSVIVDDTNYYNSKRRDLMNIAKECDTNYVTIYLKAPLNLLLKRNIERGQKIPNEVIKNMYEKFDTPGTKYAWDLPDITVDTTEKIDYNEILNEILEINENKNLKIEEDKIPKSEPVESDLVKIDSLTRNIVGNLIKTGKIDKKDIKLLSEIRKSFLKDCKKIESEKLDFEKIEKDFLDYLNKNLK	not soluble
MADSAELKQMVMSLRVSELQVLLGYAGRNKHGRKHELLTKALHLLKAGCSPAVQMKIKELYRRRF	soluble
MGNRLSKIATRTGDDGTTGLGDGSRVRKDDARIAAIGDVDELNSQIGVLLAEPLPDDVRAALSAIQHDLFDLGGELCIPGHAAITDAHLARLDGWLAHYNGQLPPLEEFILPGGARGAALAHVCRTVCRRAERSIVALGASEPLNAAPRRYVNRLSDLLFVLARVLNRAAGGADVLWDRTRAH	soluble
MTQFAFVFPGQGSQSVGMLAEMAANYPIVEETFAEASAALGYDLWALTQQGPAEELNKTWQTQPALLTASVALWRVWQQQGGKMPALMAGHSLGEYSALVCAGVINFADAVRLVEMRGKFMQEAVPEGTGGMSAIIGLDDASIAKACEESAEGQVVSPVNFNSPGQVVIAGHKEAVERAGAACKAAGAKRALPLPVSVPSHCALMKPAADKLAVELAKITFSAPTVPVVNNVDVKCETDAAAIRDALVRQLYNPVQWTKSVEFIAAQGVEHLYEVGPGKVLTGLTKRIVDTLTASALNEPAALSAALTQ	not soluble
MSLSTDDTLWREFLQVWPLERLREMTLAEYTTAGDKDCFVYWLEFRLVDYGSIAGGSAFKFAIFSRKETGAREGDTSLAYDDRYGWYRRFGTSPEEAFQTIRGHVVAVAEAARDGRLDEIDNSPLGAAYRWKIAFHYQPLRNPSTPCVYVRKPLLHFLGLSAADTTTPQSELYQALARLRQADESIFVFSERLWKDWVADTPFVVKLSEGAIKHGYLPVNLISAPFPETMYGGKTPNEAADVAHFRTDTGLEFDTDLRVSSPGSARLRHRLGGYFEDIGAAAGDLITLTQDGDGTYLLSSKLAVHAIGPTASAATITARASVKEAAAVRPPLNQILFGPPGTGKTYEAIEKALEILDPSFLLQLGDDESNERRRALKRRYDELAKEGLVQFVTFHQSFSYENFVEGLSASSDPDTKQVRYEVEDGVFKELCESARTRLVRRSDDAPLELSGRRIWKLSLGDSITEGHIFEECMEKGLALMGFGNNADFSQCQSREDIQKMFAASGEPLSLGAYPITAIKTFVCQMKLGDLIVVSEGNLKFRAIGEITGDYQLLPRDSDTYSQARPVRWLRGYKPALPYGALMENRFSQMTVYELRAGSIDHDKFRELLKSECIATGADRPHVLIIDEINRGNVSRIFGELITLIEPSKRSGAAEALEVLLPYSKDPFSVPDNVYLIGTMNTADRSLAGLDIALRRRFDFVEMAPRPDKLTGVKVAEIDISAVLETMNRRIEVLLDREHRLGHAYFMSLENSNDLSRLSNIFRQQIIPLLQEYFFEDWQRIAWILNDHRKDERFRFIVPAPYSVDSLFGDTGQVAQDSKAWRMNEEAFHKPQSYLGIVGDGKEGHHHHHH	not soluble
SARLADYFIVVGYDHEKPGSGEGLGKIIQRFPQKDWDDTPFPQGIELFCQPGGWQLSRERKQPTFFVVVLTDIDSDRHYCSCLTFYEAEINLQGTKKEEIEGEAKVSGLIQPAEVFAPKSLVLVSRLYYPEIFRACLGLIYTVYVDSLNVSLESLIANLCACLVPAAGGSQKLFSLGAGDRQLIQTPLHDSLPITGTSVALLFQQLGTVAHACNLSTLGGRGGQLTRSGDRDHPG	soluble
MPEEDLVELKFRLYDGSDVGPFQYSPTATVSMLKERIVSEWPKDKKIVPKSASDIKLINAGKILENGKTVAQCKAPFDDLPKSVITMHVVVQLSPTKARPEKKIEKEEAPQRSFCSCTIM	soluble
MVGQVIRKRGAYPEYTVEDVLAVIFLLKEPLGRKQISERLELGEGSVRTLLRKLSHLDIIRSKQRGHFLTLKGKEIRDKLLSMFSEPIGVSVDGYPGIAIVVKNPPEFKSIELRDEAIKFDAKGAMILTVKDNEIVFPEDFRPLKEMYPEVAKKIVDYEDGDAVIITWAETPAKALKSAIHVAYILKKEEITPEILEVVK	soluble
MGSDKIHHHHHHMPGSHNITKQTGASKMSSTRGAFFPDALMQQVKARFHHVDHDLDGRARLFFDNAGGSFRLKAAVDAYARIDALPDCPERIHERALDLQAIQSRGEDDVRTILNAQGGTVYASLTASGAMFDMVRAIMENVPGTNAVTTVLEHPSSYDAMTYYAERTGKTLRIAPSNPETGGVDVDAIVSLIDADTALLSVMFASNISGAKFDIEAIVARARQKKPGLFIVVDAVQHAPHGIIDLQRTPVDGINFAPYKFFGCRGSGISWLSPRAAALPHHRLAAKESGVWELGSPAPAQFAVVTSIVDYVKWIGRYFVDSDDRRTLFVEGMHRIELHERALLAALLDGCGGRRGLRSIDGVEVYWDHDDLTKRDLIVGIGFAHLEPTQAVREYEKHGVIVYERVASSLYSGRMLKSFRLAGAVRISPLHCHAPDDIARFLAITGTLAANR	not soluble
GPGSMDLLGSQIAAALEEGSRKRKRDVEEGCSALVSHVNSTLDVITTDVRNTLTEQHCEMEERVNRLMKMAGDFATAVDTWQKKASDSVCAVESQQQLLWELLQDVEKRAQERKKEMLKRQEQRMEELRTMLLERIQKAEASMQL	not soluble
ELHAELVKRQHLETFLKTQIESELVDVYFQPIIETRTGNVVKFEALARFYHENSEYSTQEMISIIEDLELIAALDDVVCQTALKQWSHLQKIYGENIGLSINRSLNTKLDSLQVLQRSLDLIKASDVNPKLVTIELTETAYFEQDEEHAFALEQIRQEGIQIAIDDFGTGYSSFSYLEEGQFDVLKIDRKFVKNIHEGSTSYNIVKTITDLAHKLNVEVVAEGVESQRELEVLAGIGVDYMQGFLFSQA	not soluble
